Laboratory results from patent US20200216495A1 (ADRX, published 2020).
Where “and” joins values, the source holds several entries; their conditions need not be identical. Equal values may be shown once. Square brackets hold non-standard residues; d marks the D form. Ends that are not written are not given here.

Biological target: Ac-VQIINK-NH2 (SEQ ID NO: 23) (N-terminal acetyl (Ac); C-terminal amide (NH2))
Experiment: cell-based or functional assay

Binder | VQIINK Inhibition IC50
[dK][dL][dK][dW][dL][dW] [klkwlw] | 6.93 µm
[dW][dR][dL][dR][dI][dF][dW] [wrlrifw] | 6.33 µm
[dY][dR][dL][dK][dV][dR][dW] [yrlkvrw] | 5.12 µm
[dI][dL][dK][dI][dV][dW] [ilkivw] | 4.13 µm
[dR][dL][dK][dV][dR][dW][dW] [rlkvrww] | 5.35 µm
[dL][dK][dI][dR][dI][dH][dA][dH] [lkirihah] | 5.54 µm
[dL][dK][dI][dR][dI][dH][dA] [lkiriha] | 5.3 µm
[dM][dR][dL][dK][dV][dR][dW] [mrlkvrw] | 5.67 µm
[dL][dK][dI][dA][dI][dH][dY] [lkiaihy] | 4.77 µm
[dW][dR][dT][dK][dV][dR][dW] [wrtkvrw] | 4.41 µm
[dW][dR][dL][dR][dI][dH][dM] [wrlrihm] | 7.39 µm
[dE][dL][dK][dI][dV][dW] [elkivw] | 6.85 µm
[dR][dK][dI][dR][dI][dH][dY][dH] [rkirihyh] | 5.59 µm
[dW][dR][dL][dA][dV][dR][dW] [wrlavrw] | 3.89 µm
[dW][dR][dE][dK][dV][dR][dW][dW] [wrekvrww] | 7.34 µm
[dK][dL][dK][dI][dV][dW] [klkivw] | 6.95 µm
[dW][dL][dK][dI][dV][dW] [wlkivw] | 3.93 µm
[dW][dR][dL][dW][dI][dH][dW][dW] [wrlwihww] | 4.07 µm
[dW][dR][dL][dA][dI][dH][dW] [wrlaihw] | 6.49 µm
[dR][dT][dL][dK][dI][dV][dW][dR] [rtlkivwr] | 5.65 µm
[dK][dV][dR][dW][dW][dL][dR][dW] [kvrwwlrw] | 4.35 µm
[dW][dR][dR][dK][dV][dR][dW][dW] [wrrkvrww] | 6.43 µm

Binder | VQIINK Inhibition IC50
[dW][dD][dL][dK][dV][dR][dW] [wdlkvrw] | 3.87 µm
[dW][dK][dL][dK][dL][dR][dW] [wklklrw] | 5.33 µm
[dV][dK][dV][dW]G[dR][dL][dW] (not fully specified (residue 5); printed as vkvwgrlw) [vkvwgrlw] | 4.51 µm
[dL][dK][dI][dR][dI][dA][dY][dH] [lkiriayh] | 5.21 µm
[dV][dR][dW][dW][dK][dL][dR][dW] [vrwwklrw] | 4.06 µm
[dF][dR][dL][dW][dI][dH][dW] [frlwihw] | 4.01 µm
[dT][dK][dI][dR][dI][dH][dY] [tkirihy] | 4.77 µm
[dL][dK][dI][dR][dI][dE][dY][dH] [lkirieyh] | 7.95 µm
[dL][dK][dV][dR][dW][dW] [lkvrww] | 6.63 µm
[dW][dR][dL][dM][dI][dH][dW] [wrlmihw] | 6.58 µm
[dF][dK][dI][dE][dI][dE][dY][dH] [fkieieyh] | 4.03 µm
[dK][dI][dR][dI][dH][dY][dH][dL] [kirihyhl] | 7.25 µm
[dF][dW][dL][dR][dI][dH][dW][dF] [fwlrihwf] | 4.42 µm
[dW][dR][dL][dK][dV][dE][dW] [wrlkvew] | 4.36 µm
[dR][dR][dL][dK][dV][dR][dW][dW] [rrlkvrww] | 4.44 µm
[dW][dR][dL][dR][dI][dH][dT] [wrlriht] | 7.32 µm
[dT][dI][dK][dL][dV][dW] [tiklvw] | 5.37 µm
[dW][dR][dL][dK][dV][dR][dE][dW] [wrlkvrew] | 5.77 µm
[dL][dK][dI][dR][dI][dH][dR][dH] [lkirihrh] | 7.35 µm
[dW][dR][dL][dK][dV][dR][dR][dW] [wrlkvrrw] | 7.04 µm
[dA][dR][dL][dR][dI][dH][dW] [arlrihw] | 6.61 µm
[dT][dL][dK][dI][dV][dW] [tlkivw] | 5.02 µm and 7.98 µm
